Measured values: the supplement of paper PMC10567573

B1: PLAGL1 (parent)
chain: EKPPSGTKEKKHQCDHCERCFYTR

Variants of: B1
Assay: protein stability index of a GFP-peptide fusion (GPS, HEK-293T) (PSI 1-6); higher = more stable
Details: c terminus: a fixed tail appended
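Further: lentivirally expressed fusions sorted by FACS into six bins by GFP to DsRed ratio, PSI derived from sequencing read proportions per bin multiplied by bin number.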

**Q.** Which protein stability index does the source give for EKPPSGTKEWKHQCDHCERCFYTR here?
**A.** Its protein stability index is 3.55.

**Q.** Which protein stability index does the source give for EKPPSGTKEYKHQCDHCERCFYTR here?
**A.** Its protein stability index is 3.81.

**Q.** For EKPPSGTKEKAHQCDHCERCFYTR, which protein stability index is on record?
**A.** The protein stability index was 3.73.

**Q.** Which protein stability index does the source give for EKPPSGTKEKDHQCDHCERCFYTR here?
**A.** Its protein stability index is 4.99.

**Q.** With EKPPSGTKEKEHQCDHCERCFYTR as the variant, how does the protein stability index read?
**A.** Its protein stability index is 4.6.

**Q.** For EKPPSGTKEKFHQCDHCERCFYTR, which protein stability index is on record?
**A.** The protein stability index was 3.67.

**Q.** With EKPPSGTKEKGHQCDHCERCFYTR as the variant, how does the protein stability index read?
**A.** The protein stability index was 4.29.

**Q.** For EKPPSGTKEKHHQCDHCERCFYTR, which protein stability index is on record?
**A.** The protein stability index was 4.06.

**Q.** Which protein stability index does the source give for EKPPSGTKEKIHQCDHCERCFYTR here?
**A.** Its protein stability index is 3.71.

**Q.** For EKPPSGTKEKLHQCDHCERCFYTR, which protein stability index is on record?
**A.** The protein stability index was 3.97.

**Q.** Which protein stability index does the source give for EKPPSGTKEKMHQCDHCERCFYTR here?
**A.** The protein stability index was 4.04.

**Q.** Which protein stability index does the source give for EKPPSGTKEKNHQCDHCERCFYTR here?
**A.** The protein stability index was 3.63.

**Q.** With EKPPSGTKEKPHQCDHCERCFYTR as the variant, how does the protein stability index read?
**A.** Its protein stability index is 3.59.

**Q.** For EKPPSGTKEKQHQCDHCERCFYTR, which protein stability index is on record?
**A.** The protein stability index was 4.28.

**Q.** For EKPPSGTKEKRHQCDHCERCFYTR, which protein stability index is on record?
**A.** Its protein stability index is 3.71.

**Q.** Which protein stability index does the source give for EKPPSGTKEKSHQCDHCERCFYTR here?
**A.** Its protein stability index is 3.79.

**Q.** Which protein stability index does the source give for EKPPSGTKEKTHQCDHCERCFYTR here?
**A.** Its protein stability index is 3.84.

**Q.** Which protein stability index does the source give for EKPPSGTKEKVHQCDHCERCFYTR here?
**A.** The protein stability index was 3.86.

**Q.** For EKPPSGTKEKWHQCDHCERCFYTR, which protein stability index is on record?
**A.** Its protein stability index is 4.32.

**Q.** For EKPPSGTKEKYHQCDHCERCFYTR, which protein stability index is on record?
**A.** The protein stability index was 3.81.

**Q.** For EKPPSGTKEKKAQCDHCERCFYTR, which protein stability index is on record?
**A.** The protein stability index was 2.44.

**Q.** For EKPPSGTKEKKCQCDHCERCFYTR, which protein stability index is on record?
**A.** Its protein stability index is 4.59.

**Q.** For EKPPSGTKEKKDQCDHCERCFYTR, which protein stability index is on record?
**A.** Its protein stability index is 3.09.

**Q.** Which protein stability index does the source give for EKPPSGTKEKKEQCDHCERCFYTR here?
**A.** Its protein stability index is 3.04.

**Q.** Which protein stability index does the source give for EKPPSGTKEKKFQCDHCERCFYTR here?
**A.** Its protein stability index is 2.39.

**Q.** For EKPPSGTKEKKGQCDHCERCFYTR, which protein stability index is on record?
**A.** Its protein stability index is 2.42.

**Q.** For EKPPSGTKEKKIQCDHCERCFYTR, which protein stability index is on record?
**A.** Its protein stability index is 2.6.

**Q.** With EKPPSGTKEKKKQCDHCERCFYTR as the variant, how does the protein stability index read?
**A.** Its protein stability index is 3.55.

**Q.** Which protein stability index does the source give for EKPPSGTKEKKLQCDHCERCFYTR here?
**A.** Its protein stability index is 2.55.

**Q.** For EKPPSGTKEKKMQCDHCERCFYTR, which protein stability index is on record?
**A.** Its protein stability index is 2.28.

**Q.** For EKPPSGTKEKKNQCDHCERCFYTR, which protein stability index is on record?
**A.** Its protein stability index is 2.52.

**Q.** With EKPPSGTKEKKPQCDHCERCFYTR as the variant, how does the protein stability index read?
**A.** Its protein stability index is 2.2.

**Q.** With EKPPSGTKEKKQQCDHCERCFYTR as the variant, how does the protein stability index read?
**A.** Its protein stability index is 3.23.

**Q.** Which protein stability index does the source give for EKPPSGTKEKKRQCDHCERCFYTR here?
**A.** The protein stability index was 2.17.

**Q.** For EKPPSGTKEKKSQCDHCERCFYTR, which protein stability index is on record?
**A.** Its protein stability index is 2.88.

**Q.** With EKPPSGTKEKKTQCDHCERCFYTR as the variant, how does the protein stability index read?
**A.** Its protein stability index is 3.24.

**Q.** Which protein stability index does the source give for EKPPSGTKEKKVQCDHCERCFYTR here?
**A.** The protein stability index was 1.99.

**Q.** With EKPPSGTKEKKWQCDHCERCFYTR as the variant, how does the protein stability index read?
**A.** The protein stability index was 1.89.

**Q.** For EKPPSGTKEKKYQCDHCERCFYTR, which protein stability index is on record?
**A.** Its protein stability index is 2.15.

**Q.** For EKPPSGTKEKKHACDHCERCFYTR, which protein stability index is on record?
**A.** The protein stability index was 3.4.

**Q.** With EKPPSGTKEKKHCCDHCERCFYTR as the variant, how does the protein stability index read?
**A.** The protein stability index was 3.19.

**Q.** Which protein stability index does the source give for EKPPSGTKEKKHDCDHCERCFYTR here?
**A.** The protein stability index was 4.33.

**Q.** With EKPPSGTKEKKHECDHCERCFYTR as the variant, how does the protein stability index read?
**A.** Its protein stability index is 4.31.

**Q.** Which protein stability index does the source give for EKPPSGTKEKKHFCDHCERCFYTR here?
**A.** The protein stability index was 3.2.

**Q.** Which protein stability index does the source give for EKPPSGTKEKKHGCDHCERCFYTR here?
**A.** The protein stability index was 2.34.

**Q.** With EKPPSGTKEKKHHCDHCERCFYTR as the variant, how does the protein stability index read?
**A.** The protein stability index was 3.28.

**Q.** With EKPPSGTKEKKHICDHCERCFYTR as the variant, how does the protein stability index read?
**A.** Its protein stability index is 3.21.

**Q.** Which protein stability index does the source give for EKPPSGTKEKKHKCDHCERCFYTR here?
**A.** The protein stability index was 3.67.

**Q.** With EKPPSGTKEKKHLCDHCERCFYTR as the variant, how does the protein stability index read?
**A.** Its protein stability index is 3.26.

**Q.** For EKPPSGTKEKKHMCDHCERCFYTR, which protein stability index is on record?
**A.** The protein stability index was 3.55.

**Q.** With EKPPSGTKEKKHNCDHCERCFYTR as the variant, how does the protein stability index read?
**A.** Its protein stability index is 3.74.

**Q.** Which protein stability index does the source give for EKPPSGTKEKKHPCDHCERCFYTR here?
**A.** Its protein stability index is 2.52.

**Q.** With EKPPSGTKEKKHRCDHCERCFYTR as the variant, how does the protein stability index read?
**A.** The protein stability index was 2.77.

**Q.** Which protein stability index does the source give for EKPPSGTKEKKHSCDHCERCFYTR here?
**A.** The protein stability index was 3.25.

**Q.** Which protein stability index does the source give for EKPPSGTKEKKHTCDHCERCFYTR here?
**A.** The protein stability index was 3.29.

**Q.** With EKPPSGTKEKKHVCDHCERCFYTR as the variant, how does the protein stability index read?
**A.** The protein stability index was 3.17.

**Q.** For EKPPSGTKEKKHWCDHCERCFYTR, which protein stability index is on record?
**A.** Its protein stability index is 2.8.

**Q.** With EKPPSGTKEKKHYCDHCERCFYTR as the variant, how does the protein stability index read?
**A.** Its protein stability index is 2.73.

**Q.** Which protein stability index does the source give for EKPPSGTKEKKHQADHCERCFYTR here?
**A.** The protein stability index was 3.97.

**Q.** For EKPPSGTKEKKHQDDHCERCFYTR, which protein stability index is on record?
**A.** Its protein stability index is 4.14.

**Q.** For EKPPSGTKEKKHQEDHCERCFYTR, which protein stability index is on record?
**A.** Its protein stability index is 4.84.

**Q.** With EKPPSGTKEKKHQFDHCERCFYTR as the variant, how does the protein stability index read?
**A.** The protein stability index was 3.81.

**Q.** Which protein stability index does the source give for EKPPSGTKEKKHQGDHCERCFYTR here?
**A.** Its protein stability index is 3.96.

**Q.** For EKPPSGTKEKKHQHDHCERCFYTR, which protein stability index is on record?
**A.** Its protein stability index is 3.57.

**Q.** For EKPPSGTKEKKHQIDHCERCFYTR, which protein stability index is on record?
**A.** The protein stability index was 3.73.

**Q.** Which protein stability index does the source give for EKPPSGTKEKKHQKDHCERCFYTR here?
**A.** The protein stability index was 4.08.

**Q.** With EKPPSGTKEKKHQLDHCERCFYTR as the variant, how does the protein stability index read?
**A.** Its protein stability index is 4.19.

**Q.** With EKPPSGTKEKKHQMDHCERCFYTR as the variant, how does the protein stability index read?
**A.** The protein stability index was 4.11.

**Q.** Which protein stability index does the source give for EKPPSGTKEKKHQNDHCERCFYTR here?
**A.** The protein stability index was 3.71.

**Q.** With EKPPSGTKEKKHQPDHCERCFYTR as the variant, how does the protein stability index read?
**A.** Its protein stability index is 4.03.

**Q.** Which protein stability index does the source give for EKPPSGTKEKKHQQDHCERCFYTR here?
**A.** The protein stability index was 4.06.

**Q.** Which protein stability index does the source give for EKPPSGTKEKKHQRDHCERCFYTR here?
**A.** The protein stability index was 3.97.

**Q.** With EKPPSGTKEKKHQSDHCERCFYTR as the variant, how does the protein stability index read?
**A.** Its protein stability index is 4.02.

**Q.** Which protein stability index does the source give for EKPPSGTKEKKHQTDHCERCFYTR here?
**A.** Its protein stability index is 3.8.

**Q.** With EKPPSGTKEKKHQVDHCERCFYTR as the variant, how does the protein stability index read?
**A.** The protein stability index was 4.55.

**Q.** Which protein stability index does the source give for EKPPSGTKEKKHQWDHCERCFYTR here?
**A.** Its protein stability index is 3.4.

**Q.** With EKPPSGTKEKKHQYDHCERCFYTR as the variant, how does the protein stability index read?
**A.** The protein stability index was 3.56.

**Q.** Which protein stability index does the source give for EKPPSGTKEKKHQCAHCERCFYTR here?
**A.** Its protein stability index is 3.75.

**Q.** Which protein stability index does the source give for EKPPSGTKEKKHQCEHCERCFYTR here?
**A.** Its protein stability index is 3.18.

**Q.** For EKPPSGTKEKKHQCFHCERCFYTR, which protein stability index is on record?
**A.** The protein stability index was 2.79.

**Q.** With EKPPSGTKEKKHQCGHCERCFYTR as the variant, how does the protein stability index read?
**A.** The protein stability index was 4.38.

**Q.** With EKPPSGTKEKKHQCHHCERCFYTR as the variant, how does the protein stability index read?
**A.** The protein stability index was 2.9.

**Q.** With EKPPSGTKEKKHQCIHCERCFYTR as the variant, how does the protein stability index read?
**A.** The protein stability index was 2.55.

**Q.** For EKPPSGTKEKKHQCKHCERCFYTR, which protein stability index is on record?
**A.** The protein stability index was 3.33.

**Q.** Which protein stability index does the source give for EKPPSGTKEKKHQCLHCERCFYTR here?
**A.** Its protein stability index is 2.91.

**Q.** For EKPPSGTKEKKHQCMHCERCFYTR, which protein stability index is on record?
**A.** Its protein stability index is 2.63.

**Q.** For EKPPSGTKEKKHQCNHCERCFYTR, which protein stability index is on record?
**A.** The protein stability index was 3.23.

**Q.** With EKPPSGTKEKKHQCPHCERCFYTR as the variant, how does the protein stability index read?
**A.** Its protein stability index is 2.25.

**Q.** For EKPPSGTKEKKHQCQHCERCFYTR, which protein stability index is on record?
**A.** The protein stability index was 2.7.

**Q.** With EKPPSGTKEKKHQCRHCERCFYTR as the variant, how does the protein stability index read?
**A.** Its protein stability index is 2.2.

**Q.** With EKPPSGTKEKKHQCSHCERCFYTR as the variant, how does the protein stability index read?
**A.** Its protein stability index is 3.29.

**Q.** With EKPPSGTKEKKHQCTHCERCFYTR as the variant, how does the protein stability index read?
**A.** The protein stability index was 3.37.

**Q.** For EKPPSGTKEKKHQCVHCERCFYTR, which protein stability index is on record?
**A.** Its protein stability index is 2.68.

**Q.** For EKPPSGTKEKKHQCWHCERCFYTR, which protein stability index is on record?
**A.** Its protein stability index is 3.15.
